Consider four molecules from patent publication US20190010242A1 (INHIBRX, published 2019).

Test [1] concerns the target T1, CD3 on the surface of primary human T cells (human, UniProt P07766 23-207).
T1 construct: whole, on cells; CD3 is a multi-chain complex; also called CD3ε
Briefly: flow cytometry on primary human T cells. A general note: Flow cytometry measures light scatter and fluorescence of single cells or particles in a stream.

Test [2] deals with T1, CD3 on the surface of primary human T …. Kind of test: flow cytometry on primary human T cells (FIGS. 14C and 14D).
The next test has as its target T2, B7H3 on A375 cells (UniProt Q5ZPR3 29-534, limits assumed).
T2 construct: whole, on cells; also called BH73
T2 sequence (looked up): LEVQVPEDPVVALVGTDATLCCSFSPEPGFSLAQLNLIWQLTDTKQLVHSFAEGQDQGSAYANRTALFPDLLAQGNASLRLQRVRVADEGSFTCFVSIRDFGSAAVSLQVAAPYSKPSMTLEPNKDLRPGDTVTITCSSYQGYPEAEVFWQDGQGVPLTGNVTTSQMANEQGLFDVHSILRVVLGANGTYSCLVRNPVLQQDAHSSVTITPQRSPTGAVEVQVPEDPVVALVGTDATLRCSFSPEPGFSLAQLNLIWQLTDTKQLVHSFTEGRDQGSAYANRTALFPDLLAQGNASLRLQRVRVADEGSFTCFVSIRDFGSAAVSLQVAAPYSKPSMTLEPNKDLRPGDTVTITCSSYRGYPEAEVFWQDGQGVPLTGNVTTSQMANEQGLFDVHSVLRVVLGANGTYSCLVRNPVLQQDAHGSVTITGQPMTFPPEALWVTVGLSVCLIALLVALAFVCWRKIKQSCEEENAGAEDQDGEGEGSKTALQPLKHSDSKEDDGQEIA
Kind of test: flow cytometry on A375 cells.

T1 sequence (P07766 23-207): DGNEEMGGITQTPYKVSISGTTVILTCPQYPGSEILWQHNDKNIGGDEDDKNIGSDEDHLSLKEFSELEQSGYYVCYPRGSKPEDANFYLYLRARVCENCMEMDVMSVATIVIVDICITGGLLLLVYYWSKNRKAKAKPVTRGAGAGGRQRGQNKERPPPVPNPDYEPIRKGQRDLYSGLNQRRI

B1: cx3309 (CD20-targeting constrained CD3 engaging construct, GA101 scFvs) (bispecific antibody)
chain 1: not shown
chain 2: DKTHTCPPCPAPELLGGPSVFLFPPKPKDTLMISRTPEVTCVVVDVSHEDPEVKFNWYVDGVEVHNAKTKPREEQYNSTYRVVSVLTVLHQDWLNGKEYKCKVSNKALPAPIEKTISKAKGQPREPQVYTLPPCRDELTKNQVSLWCLVKGFYPSDIAVEWESNGQPENNYKTTPPVLDSDGSFFLYSKLTVDKSRWQQGNVFSCSVMHEALHNHYTQKSLSLSPTGGSGGGGIEPDIGGSGGSEVQLVESGGGLVQPGGSLRLSCAASGFTFNTYAMNWVRQAPGKCLEWVARIRSKYNNYATYYADSVKGRFTISRDDAKNTLYLQMSSLRAEDTAVYYCVRHGNFGNSYVSWFAYWGQGTLVTVKP
scFv: QVQLVQSGAEVKKPGSSVKVSCKASGYAFSYSWINWVRQAPGQGLEWMGRIFPGDGDTDYNGKFKGRVTITADKSTSTAYMELSSLRSEDTAVYYCARNVFDGYWLVYWGQGTLVTVSGSGGGGSGGGGTGGGGSDIVMTQTPLSLPVTPGEPASISCRSSKSLLHSNGITYLYWYLQKPGQSPQLLIYQMSNLVSGVPDRFSGSGSGTDFTLKISRVEAEDVGVYYCAQNLELPYTFGGGTKVEIK
notes: also called cx3490
As to B1, in test [1], the binding result is given as “no binding (tested: 100 nM)”.

B2: cx3313 (B7H3-targeting constrained CD3 engager, B7H3 Fab) (bispecific antibody)
chain 1: not shown
chain 2: DKTHTCPPCPAPELLGGPSVFLFPPKPKDTLMISRTPEVTCVVVDVSHEDPEVKFNWYVDGVEVHNAKTKPREEQYNSTYRVVSVLTVLHQDWLNGKEYKCKVSNKALPAPIEKTISKAKGQPREPQVYTLPPCRDELTKNQVSLWCLVKGFYPSDIAVEWESNGQPENNYKTTPPVLDSDGSFFLYSKLTVDKSRWQQGNVFSCSVMHEALHNHYTQKSLSLSPTGGSGGGGIEPDIGGSGGSEVQLVESGGGLVQPGGSLRLSCAASGFTFNTYAMNWVRQAPGKCLEWVARIRSKYNNYATYYADSVKGRFTISRDDAKNTLYLQMSSLRAEDTAVYYCVRHGNFGNSYVSWFAYWGQGTLVTVKP
heavy: EVQLVESGGGLVQPGGSLRLSCAASGFTFSSFGMHWVRQAPGKGLEWVAYISSDSSAIYYADTVKGRFTISRDNAKNSLYLQMNSLRDEDTAVYYCGRGRENIYYGSRLDYWGQGTTVTVSSASTKGPSVFPLAPSSKSTSGGTAALGCLVKDYFPEPVTVSWNSGALTSGVHTFPAVLQSSGLYSLSSVVTVPSSSLGTQTYICNVNHKPSNTKVDKKVEPKSC
light: DIQLTQSPSFLSASVGDRVTITCKASQNVDTNVAWYQQKPGKAPKALIYSASYRYSGVPSRFSGSGSGTDFTLTISSLQPEDFATYYCQQYNNYPFTFGQGTKLEIKRTVAAPSVFIFPPSDEQLKSGTASVVCLLNNFYPREAKVQWKVDNALQSGNSQESVTEQDSKDSTYSLSSTLTLSKADYEKHKVYACEVTHQGLSSPVTKSFNRGEC
notes: also called cx3313 FAB
In the case of B2, the binding result in test [2] is “no binding”.

B3: cx3314 (B7H3-targeting constrained CD3 engager, B7H3 scFv) (bispecific antibody)
chain 1: not shown
chain 2: DKTHTCPPCPAPELLGGPSVFLFPPKPKDTLMISRTPEVTCVVVDVSHEDPEVKFNWYVDGVEVHNAKTKPREEQYNSTYRVVSVLTVLHQDWLNGKEYKCKVSNKALPAPIEKTISKAKGQPREPQVYTLPPCRDELTKNQVSLWCLVKGFYPSDIAVEWESNGQPENNYKTTPPVLDSDGSFFLYSKLTVDKSRWQQGNVFSCSVMHEALHNHYTQKSLSLSPTGGSGGGGIEPDIGGSGGSEVQLVESGGGLVQPGGSLRLSCAASGFTFNTYAMNWVRQAPGKCLEWVARIRSKYNNYATYYADSVKGRFTISRDDAKNTLYLQMSSLRAEDTAVYYCVRHGNFGNSYVSWFAYWGQGTLVTVKP
scFv: EVQLVESGGGLVQPGGSLRLSCAASGFTFSSFGMHWVRQAPGKGLEWVAYISSDSSAIYYADTVKGRFTISRDNAKNSLYLQMNSLRDEDTAVYYCGRGRENIYYGSRLDYWGQGTTVTVSSSGGGGSGGGGSGGGGSDIQLTQSPSFLSASVGDRVTITCKASQNVDTNVAWYQQKPGKAPKALIYSASYRYSGVPSRFSGSGSGTDFTLTISSLQPEDFATYYCQQYNNYPFTFGQGTKLEIK
notes: also called cx3314 scFv
In the case of B3, in test [2], the binding result is given as “no binding”.

B4: Dual-affinity Re-targeting Antibody (DART)-monomeric Fc format targeting B7H3 and CD3 (bispecific antibody)
chain 1: DIQLTQSPSFLSASVGDRVTITCKASQNVDTNVAWYQQKPGKAPKALIYSASYRYSGVPSRFSGSGSGTDFTLTISSLQPEDFATYYCQQYNNYPFTFGQGTKLEIKGGGSGGGGEVQLVESGGGLVQPGGSLRLSCAASGFTFSTYAMNWVRQAPGKGLEWVGRIRSKYNNYATYYADSVKDRFTISRDDSKNSLYLQMNSLKTEDTAVYYCVRHGNFGNSYVSWFAYWGQGTLVTVSSGGCGGGEVAALEKEVAALEKEVAALEKEVAALEKGGGDKTHTCPPCPAPEAAGGPSVFLFPPKPKDTLMISRTPEVTCVVVDVSHEDPEVKFNWYVDGVEVHNAKTKPREEQYNSTYRVVSVLTVLHQDWLNGKEYKCKVSNKALPAPIEKTISKAKGQPREPQVYTLPPSREEMTKNQVSLWCLVKGFYPSDIAVEWESNGQPENNYKTTPPVLDSDGSFFLYSKLTVDKSRWQQGNVFSCSVMHEALHNHYTQKSLSLSPGK
chain 2: QAVVTQEPSLTVSPGGTVTLTCRSSTGAVTTSNYANWVQQKPGQAPRGLIGGTNKRAPWTPARFSGSLLGGKAALTITGAQAEDEADYYCALWYSNLWVFGGGTKLTVLGGGGSGGGGEVQLVESGGGLVQPGGSLRLSCAASGFTFSSFGMHWVRQAPGKGLEWVAYISSDSSAIYYADTVKGRFTISRDNAKNSLYLQMNSLRDEDTAVYYCGRGRENIYYGSRLDYWGQGTTVTVSSGGCGGGKVAALKEKVAALKEKVAALKEKVAALKE
chain 3: not shown
notes: also called DART-Fc B7H3×CD3; DART-Fc
Turning to B4, the binding result (with B7H3 on A375 cells; in test [1]) was “binds” each time.
